Data from article PMC6851183, “Computational design and characterization of nanobody-derived peptides that stabilize the active conformation of the β2-adrenergic receptor (β2-AR)” (Scientific Reports, 2019).

How the values were obtained:
[1] = molecular target: T1, C-terminal GFP2-tagged β2-adrenergic receptor (β2-AR/GFP2) (human, UniProt P07550 1-413); experiment: MST; lysate of HEK-293 cells with β2-AR/GFP2 kept constant as fluorescent target, P3 titrated in 1:1 dilutions, no agonist; MST buffer with 0.05% Tween 20, 25 °C; EC50 from bound fraction; details: one partner purified
T1 construct: human β2-adrenergic receptor; not shown: GFP2, C-terminal, kept

[2] = molecular target: T1, C-terminal GFP2-tagged β2-adrenergic …; experiment: MST; lysate of HEK-293 cells with β2-AR/GFP2 kept constant as fluorescent target, P3 titrated in 1:1 dilutions, in the presence of 10 µM isoproterenol; MST buffer with 0.05% Tween 20, 25 °C; EC50 from bound fraction; details: one partner purified

EC50 [1]: 58.2 ± 13.6 µM | EC50 [2]: 3.57 ± 0.81 µM
B1: P3, nanobody-derived peptide (NDP) of Nb71 (peptide)
peptide: EDTAVYYCNANWDLLSD
notes: 17 aa stretch of the nanobody Nb71 (amino acid residues 88-104, includes CDR3), picked by computational peptide scanning; numbers count on Nb71; source: synthetic peptide, custom-synthesized at Biomatik Corporation
